Tests used:
4H3354-bN = target: T1, 4H3354-bN; assay: two-hybrid library CCNG1;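 note: natural log of median RNA to DNA barcode read ratio; higher means stronger binding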
T1 chain: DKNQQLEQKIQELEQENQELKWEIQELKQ

4H953-bN = target: T2, 4H953-bN; assay: two-hybrid library CCNG1;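 note: natural log of median RNA to DNA barcode read ratio; higher means stronger binding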
T2 chain: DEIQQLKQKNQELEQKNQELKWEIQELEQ

4H3129-bH = target: T3, 4H3129-bH; assay: two-hybrid library CCNG1;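 note: natural log of median RNA to DNA barcode read ratio; higher means stronger binding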
T3 chain: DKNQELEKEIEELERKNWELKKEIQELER

4H3782-bN = target: T4, 4H3782-bN; assay: two-hybrid library CCNG1;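 note: natural log of median RNA to DNA barcode read ratio; higher means stronger binding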
T4 chain: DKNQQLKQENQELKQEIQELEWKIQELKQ

4H575-bN = target: T5, 4H575-bN; assay: two-hybrid library CCNG1;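 note: natural log of median RNA to DNA barcode read ratio; higher means stronger binding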
T5 chain: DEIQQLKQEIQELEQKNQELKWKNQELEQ

4H4001-bN = target: T6, 4H4001-bN; assay: two-hybrid library CCNG1;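 note: natural log of median RNA to DNA barcode read ratio; higher means stronger binding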
T6 chain: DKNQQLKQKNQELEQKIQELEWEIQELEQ

4H967-bN = target: T7, 4H967-bN; assay: two-hybrid library CCNG1
T7 chain: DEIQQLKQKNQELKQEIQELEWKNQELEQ

4H968-bN = target: T8, 4H968-bN; assay: two-hybrid library CCNG1
T8 chain: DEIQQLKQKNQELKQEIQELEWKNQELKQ

4H855-bN = target: T9, 4H855-bN; assay: two-hybrid library CCNG1
T9 chain: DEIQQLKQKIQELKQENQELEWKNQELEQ

4H338-bN = target: T10, 4H338-bN; assay: two-hybrid library CCNG1
T10 chain: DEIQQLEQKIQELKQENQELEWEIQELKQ

4H3926-bN = target: T11, 4H3926-bN; assay: two-hybrid library CCNG1
T11 chain: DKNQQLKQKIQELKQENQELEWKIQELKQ

4H908-bN = target: T12, 4H908-bN; assay: two-hybrid library CCNG1
T12 chain: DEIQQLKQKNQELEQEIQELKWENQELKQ

4H346-bN = target: T13, 4H346-bN; assay: two-hybrid library CCNG1
T13 chain: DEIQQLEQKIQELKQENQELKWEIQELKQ

4H457-bN = target: T14, 4H457-bN; assay: two-hybrid library CCNG1
T14 chain: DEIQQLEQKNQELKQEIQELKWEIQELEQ

4H3427-bN = target: T15, 4H3427-bN; assay: two-hybrid library CCNG1
T15 chain: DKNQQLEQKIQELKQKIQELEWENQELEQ

4H797-bN = target: T16, 4H797-bN; assay: two-hybrid library CCNG1
T16 chain: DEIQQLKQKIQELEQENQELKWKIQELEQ

4H754-bN = target: T17, 4H754-bN; assay: two-hybrid library CCNG1
T17 chain: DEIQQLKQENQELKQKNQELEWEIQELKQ

4H717-bN = target: T18, 4H717-bN; assay: two-hybrid library CCNG1
T18 chain: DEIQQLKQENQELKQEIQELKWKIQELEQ

4H3172-bN = target: T19, 4H3172-bN; assay: two-hybrid library CCNG1
T19 chain: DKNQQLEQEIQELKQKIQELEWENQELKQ

4H4073-bN = target: T20, 4H4073-bN; assay: two-hybrid library CCNG1
T20 chain: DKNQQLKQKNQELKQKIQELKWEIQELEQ

4H3817-bH = target: T21, 4H3817-bH; assay: two-hybrid library CCNG1
T21 chain: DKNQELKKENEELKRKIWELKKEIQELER

4H883-bN = target: T22, 4H883-bN; assay: two-hybrid library CCNG1
T22 chain: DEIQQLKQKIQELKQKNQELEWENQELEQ

4H683-bN = target: T23, 4H683-bN; assay: two-hybrid library CCNG1
T23 chain: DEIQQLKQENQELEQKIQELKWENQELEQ

4H3185-bN = target: T24, 4H3185-bN; assay: two-hybrid library CCNG1
T24 chain: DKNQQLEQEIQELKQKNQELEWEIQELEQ

4H687-bN = target: T25, 4H687-bN; assay: two-hybrid library CCNG1
T25 chain: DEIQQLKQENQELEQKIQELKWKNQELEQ

4H72-bN = target: T26, 4H72-bN; assay: two-hybrid library CCNG1
T26 chain: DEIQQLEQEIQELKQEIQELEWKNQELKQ

4H918-bN = target: T27, 4H918-bN; assay: two-hybrid library CCNG1
T27 chain: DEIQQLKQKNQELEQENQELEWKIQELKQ

4H454-bN = target: T28, 4H454-bN; assay: two-hybrid library CCNG1
T28 chain: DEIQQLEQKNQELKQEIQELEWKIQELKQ

4H780-bN = target: T29, 4H780-bN; assay: two-hybrid library CCNG1
T29 chain: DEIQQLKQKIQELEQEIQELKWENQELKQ

4H3855-bN = target: T30, 4H3855-bN; assay: two-hybrid library CCNG1
T30 chain: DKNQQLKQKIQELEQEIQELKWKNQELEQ

4H331-bN = target: T31, 4H331-bN; assay: two-hybrid library CCNG1
T31 chain: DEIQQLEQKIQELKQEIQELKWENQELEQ

4H607-bN = target: T32, 4H607-bN; assay: two-hybrid library CCNG1
T32 chain: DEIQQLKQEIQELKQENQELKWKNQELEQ

4H568-bN = target: T33, 4H568-bN; assay: two-hybrid library CCNG1
T33 chain: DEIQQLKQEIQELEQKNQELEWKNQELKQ

4H3112-bN = target: T34, 4H3112-bN; assay: two-hybrid library CCNG1
T34 chain: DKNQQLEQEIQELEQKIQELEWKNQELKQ

O3-AA = target: T35, O3-AA; assay: two-hybrid library CCmax
T35 chain: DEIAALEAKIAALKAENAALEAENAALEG

P9-AA = target: T36, P9-AA; assay: two-hybrid library CCmax; conditions: mean of both orientations
T36 chain: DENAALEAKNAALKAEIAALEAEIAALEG

O7-AA = target: T37, O7-AA; assay: two-hybrid library CCmax; conditions: mean of both orientations
T37 chain: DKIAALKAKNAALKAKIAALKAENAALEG

P10-AA = target: T38, P10-AA; assay: two-hybrid library CCmax; conditions: mean of both orientations
T38 chain: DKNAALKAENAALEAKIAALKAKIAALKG

O4-AA = target: T39, O4-AA; assay: two-hybrid library CCmax; conditions: mean of both orientations
T39 chain: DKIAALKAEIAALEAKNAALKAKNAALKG

O5-AA = target: T40, O5-AA; assay: two-hybrid library CCmax; conditions: mean of both orientations
T40 chain: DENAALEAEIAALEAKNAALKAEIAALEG

O8-AA = target: T41, O8-AA; assay: two-hybrid library CCmax; conditions: mean of both orientations
T41 chain: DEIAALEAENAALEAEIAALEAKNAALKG

O6-AA = target: T42, O6-AA; assay: two-hybrid library CCmax; conditions: mean of both orientations
T42 chain: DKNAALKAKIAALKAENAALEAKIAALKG

## DKNQQLEQEIQELEQKIQELEWKNQELKQ [4H3112-bN]
4H3354-bN
  interaction score: 0.377
4H953-bN
  interaction score: 0.0741
4H3129-bH
  interaction score: -0.762
4H3782-bN
  interaction score: -0.541
4H575-bN
  interaction score: -1.34
4H4001-bN
  interaction score: -0.255
4H967-bN
  interaction score: -1.11
4H968-bN
  interaction score: -0.158
4H855-bN
  interaction score: 0.606
4H338-bN
  interaction score: -0.816
4H3926-bN
  interaction score: 0.154
4H908-bN
  interaction score: 0.308
4H346-bN
  interaction score: 0.282
4H457-bN
  interaction score: -0.526
4H3427-bN
  interaction score: 0.996
4H797-bN
  interaction score: -0.676
4H754-bN
  interaction score: -1.34
4H717-bN
  interaction score: -1.88
4H3172-bN
  interaction score: 0.00481
4H4073-bN
  interaction score: -0.28
4H3817-bH
  interaction score: -0.521
4H883-bN
  interaction score: 1.54
4H683-bN
  interaction score: 0.347
4H3185-bN
  interaction score: -1.11
4H687-bN
  interaction score: -1.66
4H72-bN
  interaction score: -0.5
4H918-bN
  interaction score: 0.0994
4H454-bN
  interaction score: 0.745
4H780-bN
  interaction score: -0.0911
4H3855-bN
  interaction score: -0.962
4H331-bN
  interaction score: -0.918
4H607-bN
  interaction score: 0.634
4H568-bN
  interaction score: 0.078
4H3112-bN
  interaction score: -0.426

## DEIAALEAKIAALKAENAALEAENAALEG [O3-AA]
O3-AA
  interaction score: -0.811
P9-AA
  interaction score: -0.88
O7-AA
  interaction score: -1.4
P10-AA
  interaction score: -1.06
O4-AA
  interaction score: 1.99
O5-AA
  interaction score: -1.22
O8-AA
  interaction score: -1.37
O6-AA
  interaction score: -0.902
